Measurements reported in the domain aggregation screens of Martell et al. (2025).

Test: soluble fraction after stress (log2 fold change); higher = more stays soluble; pooled small domains, quantitative proteomics
Settings: stress: 50 degC
In short: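 Each library was heated to 50°C as a stress step. The libraries, made up of small protein domains, were pooled and analysed at high throughput by quantitative proteomics. The reported value is the base-two logarithm of the fold change in each protein's soluble amount after stress, taken as a measure of aggregation propensity. The higher the value, the more protein stays in solution.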

Sequence | soluble fraction (log2)
HMGQISDESVLKEMVVQLIADNPKEVASYLGGKETLLQWFMGQVARATKGKADPQAVKQLLLDEFEKLK | 0.092
HMQEDQKTSIFDIEGVEKGVASVLSSIKVEIVSDLLEADMDDILKSGKISEDDLDGVYEAVQNFVER | 0.42
HMKESRLFRILYYLLQHKKATAPELAEEFEVSVRTIYRDIDYISSAGVPIYATQGKDGGIAILDSF | -0.65
HMGTDGLKDIVLEILKEHPNQLAELIDGKQKVLGFLVGQVMKKTNGAANPKEVNEIIQGEIKK | -0.0707
HMSEKIDINNSNELELKQLPLTNEQIKSLIEFRRLHGEIQNIYELKNIDFFNIEKVHELKAHIEIKKII | -0.427
HMEYYWHQLKGLEVVNTRGESLGRVRRLLETGANDVLVLEGEQERLIPYVPDTIKQVDLAKGLIEVAWDRD | -0.0728
HMFHDALVSFAERRVIFMKELVNRLNEARKAYYEGESIMSDKEYDNLYDKLVKMELTTGVVLPNSPTEEVG | -1.37
HMSDEINYVIQINGKNRAEAEFGANLDKESIENLALEHERIKELLNGLTVRKIIVVPKKLVNIVA | -0.312
HMPLEQAELRLDLKQAILQMDRQTQELLLLRYVDGLSPGEAGKVLELSRFAVYRREKEALRKLRDYFSH | -1.79
HMSVSEAELAEKYHADDLEALKSGKLHEFQENLIDRNGKKYTVQTMKDILTLSDGTRLLLGIGLD | 0.174
HMNVEATAETLLALLKKNGGSLPFGDKSDPEAIQSQLKMSKKTFKKAAGTLFKKKLVRIEDHGIFL | -0.657
HMDGDVAVKGGDGVLEVRLANAANVRVYNLAGRLMADYTGTELHMPLPKGVYMVVAGDNRTKVVV | 0.074
HMAKINFTSDAIDIGMVTRNDIEMLSFYQNVLGLTKDMEIPFPGLGVVNKLSFGSGFIKILVL | -0.0122
HMDKFKDVGARIREARKVQKLSQADLAERLQISTSHMSDIENGKKNIGLDIFMRLTEALQVSADWLL | -0.124
HMDYNSYGLTERELELVDYVLKGYSRKEMAEASGLKVNTIGSYMKKIYRKLNIHNRTELKERFI | -0.37
HMVSSYTMAIQINGKLRATHDFSVDTSQEDIKKIIINLPAIQKYINGVEIKKFIIVPQKIVNIV | -2.52
HMVLVEEYDTKDSASTFKIGYYARYNTKYGTPSKVGSYADNQRSGIWTFYTDSLKTYFKYNYSTGLIL | 0.115
HMGDFLLTPHRGRSADFVIGNPPYIRLEDVPNDISDAYRAEYASMPGRADIHVGFYEKGLDL | -0.142
HMVVLPGEVLRINVIQEGKEHGQGVGYMDDGTMVVIENGREFIGEYMEVNVTKVLQTAAGRMIFGRVD | -0.526
HMKVPDVQYMNKDSAIEALTANELKYTIVEAENENVAAGVVISQSVERDSQVAPGTSVELVVSTG | 0.0357
HMTIGKRIKRRRIELKMSIDSLARTIGKDRSTVYRYESGAIDKVSSDVLAKLATALNTTPAYLIGL | -3.27
HMSYKFDSLAIILNKLDGKETVNVSSLSDELEVSARTVHRYIGTLQVAGFPIEYDKTKNSYIFSEGYTL | -0.874
HMLDVNLIFSRPGFSLSAAFTLHAGGITVLRGDSGSGKTTLADLLSGAIAPQKGRILSDGDIWFDAASGIN | 0.22
HMGNKKLVLKLSKKLIKIPSFLNIYSVKLTKNGRELEINLDKSQNEAIDIINLIKKNNISFLEFDIKKR | -0.267
HMEAQAHYDAIYKAHPNADSIAQSAEFKAWVDAQPSVVRNAYWQLFDPKEGGTAEQIVEVFDAFVKSS | -0.151
HMEEEDELALFLREERKNYDLTLTDVHEKTGIPQKVLKEFQWGDAQLTDRQRYTLTQYVEEAREYFQENA | 0.0369

Sequence | soluble fraction (log2)
HMSDFDPTLILDLIKGSGEALTKREIARALGIKGGDKRIELKSHLKSMEAEGVIVKQAGGAYSVP | -0.122
HMDYLYHNGKEIDQGSIMYKMEDYSDGIFELQSAKYADGTELDEKELEELESTQELIDWVMIDFVS | 0.42
HMSDPFSPTTTLKNRAKSVLSVDSFEDFKLFIKKMWQEKKEGVYQNPNVETWKDWDNISVKDAKILISLI | -0.474
HMYSRQRDLILKALRENVVHPTADFIYTVLKEKEPNLSLATVYRNLNLLANEGIIRKIEGLDGVAHFDH | -1.46
HMNEYSLVPDIYGMTYDDALSSLRNVGLDGRLALASTNEDLANADTRVVWQSKEAGSIIDKGSNVMFVID | 0.0609
HMPTLLGYKHILSAWNPDTNTVFRTSYGYDGEYGSREEAMQALIKMIQEGGKATPRGIEESEVPIY | -0.126
HMKGTSIELIVPQDIAGLRLDQVLAKLLPQWSRSRLQSWINEKHITVNGQTTTAKQKLWGNETIQIIPPI | -0.66
HMNPGHAERGKEIVEVFLRNNGELSMREIAEKSNITITQARRRVNKLLDQGIVEATAPVQSRNRKYRIK | 0.134
HMYNPAYDAEIKVILELARHGYWEEARERADELLKAAPDDTGVKRIQTWVRQQEQRMREQAIEDSIRA | -0.0287
HMQTTDTGAIETIVDELMAANPDKVEAYRGGKTGLQGFFMGQVMKQLGGQGNPKVISAIVTEKLE | ≥ 0.62
HMVAGHLQEKNGQFYAVLSYKDTKGKRRTKWVPTGLMVRGNKKRAEAMLNDIRRKFVPPEQED | 0.0995
HMSRYAFEGNVVRLNQKDFDSWKALFTNIDLVSELTRLDIEFTHDKPKNWFSTASAKLNYQNKNAY | -2.27
HMKYTVKSPLPGVIMSVLVKVGDTVKASDTVISLEAMKMENAIHAGRDGKVTSIDVNVGDSVLEGHTLVTI | -0.386
HMDDFGERLRKLRVAQDLTQQQLGEKLGVVPSTIGKYEKVKDSYPSIEVLIKLSDFFSVSTDYLLKG | -1.88
HMPANVELLRTFTNKTGTKIKARIVAVSDNKVKLIRDDSKKFIVPIDSLSEEDQKYLKDWIANEVGEQ | 0.0498
HMNSEERVLDTASKWLVKLDEGLDESEAQVLKVWLATPLHRDTFLEMVALWDKMSVLNELADIV | -1.78
HMVPHTTSMVAEVQERLFNLNYDPGPINGRMDQATITAITRFQRNFSLPQTGQIDEGFLNTLRDARL | -0.981
HMEPSERYKALQSLLPDYAKRLKKKGVTRHQLFLEYRLTHPDGYARSRFGTYFQAYLALSHP | -2.27
HMHEYSDIEHRILDAAREVFIRKGYDSATMGDIALLAGMSRTSVNYYFRNKERLFEAIFEEII | -2.08
HMGERMELTLDNPREAIPVLDAMGFANYQVVDKEHIHIFERLNESALVNMELAKAGIPVKGISITSE | 0.018
HMQVSDTNTLEQFAKEVIEANPKAVEDYHQNPLAIGFLVGQLMKVSKGSANPQTGKEILEKLL | 0.178
HMVSVPDIGEKLPDFTGTPKRLLTPLLNKNDVNIIIKGDGWVVSQKPPAGTPVTKGMTIEFTL | -0.208
HMAKLGITQREQEVLQLLVTGKTYKEIAAELFISLPTVKTHVSNIYSKAKVRNRLELSNLINYI | -2.73
HMSQRINLNSASIEDMQSLDISNEKIDSIIDYRNRYGNIHNIYELLKIPGITIGDIHSIRNAVTVEIPH | -0.112
HMAEVGDFTLAELIKVLFNEAGVLKAPVELRNDNTGGLQYRVGAYTDSETGWETIASIADLKGA | -0.436
HMDFDLIAIFEEQFARALSPIEINIIKEWKNSNYSDDMIVKALKEAVKSQVFNFRYIERILINWSQNG | -0.387

Sequence | soluble fraction (log2)
HMYDRIKLLKLREKRGLTQYELAEKAGISVVTLNKIETSDMAKPFASTLKKIALALGVGIEELS | -0.121
HMLVGRDPQALILGSMPSEKSLEEDEYYAHPRNRFWSLMNWLLAGNKTRPAYKTGIEILSSHGIALWV | -0.263
HMKRRSLQVGDIVQVRSLNVKGEVVSIGKNEVVVAVGRLQMRAGFDDLDFKERPKEEREVESV | -0.143
HMGAQPLIEPLSERELEVLALIAEGLTNAEIGRRLFIATGTVKRHVNTIYGKLDVHGRIEAIARARDLHLI | -0.276
HMESIEAGTFELDNKTSIDISEDEANLLNKMFEELTETNSKDMYGVMVADEAGFNEILEFAKENL | 0.167
HMLKLEDIKKDAQVKGIVDGQIVRIVTVEPIGDHALTVYYKDHQGQFAERMLFRSDELNLELATA | -0.00641
HMHDPLATLTPREHEVMSLMAEGRTNAAIAQALVIGTGAVEKNVTSIFQKLGLDDSGTDHRRVLAVLAWLQ | -2.14
HMYYQEDHDIILEETEDVTDPYLITLRGYIFLNNLQWVAARQAFLSADERFRHRHYSALIAPIMQTIDNAA | -0.013
HMFEARNTTFSEDGKTITETYGVKRIETEFVSDSTIVQKLYDNDVLTKTKTITFSADGLSIKEDV | 0.0154
HMFEKVKLTLTIPSKYSGSTYSALRNRMNKFSKEEWLSNGDLKIEIEVTGGQKTDIYTLINKLTNGEAIIE | -0.141
HMEEQKYEYHLGDVVYLGVDKYEILGITNNIVTLYDPEFPLLNKQLDFDEFEKRVKDNYANEHLKVT | -0.429
HMEPEYIGELEKRIKKLKTHTYSSIDRLMKSISKKYKITTQVLHDDFKNKHNEIPDEWVKQF | -0.0578
HMNPIEAQIEELKNKDQKTAYQALKHLLAISETRAEVSYYFDRFVALLQDPQSYVRTRGLLLIGA | 0.271
HMELLPAERRQQLVDWFKSNQAGTSQDLARMFGISVSTIRRDLDLLASEGLVKRTHGGAVSIR | 0.0027
HMGDEPGAGYKWREDVLLRVMSEHGIDESARDDFVRHAVKFDDDDNLYLKKAEIIAAAEAWESSS | 0.17
HMKRTKLEEATEWLRDRLSDGVKYNGEELLREGESADMARRTLRRAAQELGVIIERERGARGRWFWSLP | -0.515
HMNLDPHVVGHRLRDLRTRRDLTLADVAAETDISVSTLSRLESGSRRATLELLVPLARTYRVTLDELVDA | -0.66
HMTLSVRQRMSQIINKIDVSNFTDFTKLFDINEGRLGVAVTFLAILELLKDTMIDVIQNEEFAPLHIKVSS | -0.177
HMGVRDIRIFERNNSFFVNAEIRGEAQLSVPITRTDYQLFKENKIDALSLVEKYYAEELNASNEMK | -0.164
HMLTGDVDRYKDFFIALEKTSPVPIGFEKIIGGAHGYYHLEDKRIAIDEGMSELQTLKTAIHEIAHAKLHD | -0.14
HMGVDKLTPREREVLALMAQGASNREIEGKLVLTAGAVSKHVANVFMKLGFSPEDENRRVKAVLAWLRTK | -1.05
HMQITDTEAIATTLDEIIAANPKEWERLKAGQEQLVKFFVGQVMRVTKGRANPQVVNDLLKERL | -0.075
HMKGEKVTKIELSNFIKFLINDLENKGFFNPPEKKDSMIDNIYSIYNKMTLTKKELNMLWGMHKKLK | -1.44
HMDNIEIGNRIREIRIKKNISVFELAYRTKTSQSHIYQIEGGSQNMSIELLFKIADTLETDPNTILGV | -3.78
